The text below walks through data of PMC7927433 (The Journal of Experimental Medicine, 2020).

For this experiment, the target named is T1, recombinant XPF-HA (human, UniProt Q92889 1-916).
T1 sequence: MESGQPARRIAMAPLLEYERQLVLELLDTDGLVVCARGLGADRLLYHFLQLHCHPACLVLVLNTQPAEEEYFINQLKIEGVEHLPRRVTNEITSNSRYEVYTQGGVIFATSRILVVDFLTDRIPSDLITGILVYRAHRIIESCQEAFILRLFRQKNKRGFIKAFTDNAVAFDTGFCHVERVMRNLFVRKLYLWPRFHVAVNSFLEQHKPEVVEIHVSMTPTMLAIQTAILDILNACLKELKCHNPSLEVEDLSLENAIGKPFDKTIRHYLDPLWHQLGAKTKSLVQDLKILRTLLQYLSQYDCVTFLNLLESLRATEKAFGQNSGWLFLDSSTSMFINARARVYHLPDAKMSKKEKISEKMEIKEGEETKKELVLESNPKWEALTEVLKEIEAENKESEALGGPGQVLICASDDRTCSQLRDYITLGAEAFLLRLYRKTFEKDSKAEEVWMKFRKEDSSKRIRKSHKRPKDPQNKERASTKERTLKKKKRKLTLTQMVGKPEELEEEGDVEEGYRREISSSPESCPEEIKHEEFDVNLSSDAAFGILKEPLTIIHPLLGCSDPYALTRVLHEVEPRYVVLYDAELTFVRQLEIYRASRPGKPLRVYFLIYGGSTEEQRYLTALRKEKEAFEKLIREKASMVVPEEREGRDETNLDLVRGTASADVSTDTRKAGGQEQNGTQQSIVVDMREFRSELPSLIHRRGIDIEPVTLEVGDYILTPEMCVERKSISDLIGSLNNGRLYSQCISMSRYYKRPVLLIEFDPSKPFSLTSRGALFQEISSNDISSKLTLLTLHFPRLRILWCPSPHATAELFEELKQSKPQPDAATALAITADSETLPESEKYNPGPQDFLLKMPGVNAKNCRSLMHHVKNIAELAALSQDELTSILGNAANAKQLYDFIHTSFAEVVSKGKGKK
Briefly: SEC. For orientation: SEC sorts molecules by how far they enter the pores of the column.

B1: recombinant ERCC1^R156W-His (natural protein)
chain: MDPGKDKEGVPQPSGPPARKKFVIPLDEDEVPPGVAKPLFRSTQSLPTVDTSAQAAPQTYAEYAISQPLEGAGATCPTGSEPLAGETPNQALKPGAKSNSIIVSPRQRGNPVLKFVRNVPWEFGDVIPDYVLGQSTCALFLSLRYHNLHPDYIHGWLQSLGKNFALRVLLVQVDVKDPQQALKELAKMCILADCTLILAWSPEEAGRYLETYKAYEQKPADLLMEKLEQDFVSRVTECLTTVKSVNKTDSQTLLTTFGSLEQLIAASREDLALCPGLGPQKARRLFDVLHEPFLKVP
Take B1: the binding result was “binds”.
